Changes are numbered by the printed parent chain.
T1: human IL-12Rβ2 (human, UniProt Q99665 24-862)
T1 construct: Expressed on HEK293T cells transiently transfected with a pcDNA3 plasmid (Genscript clone OHu21785); also called hIL-12RB2; IL-12 receptor β2 subunit
T1 sequence: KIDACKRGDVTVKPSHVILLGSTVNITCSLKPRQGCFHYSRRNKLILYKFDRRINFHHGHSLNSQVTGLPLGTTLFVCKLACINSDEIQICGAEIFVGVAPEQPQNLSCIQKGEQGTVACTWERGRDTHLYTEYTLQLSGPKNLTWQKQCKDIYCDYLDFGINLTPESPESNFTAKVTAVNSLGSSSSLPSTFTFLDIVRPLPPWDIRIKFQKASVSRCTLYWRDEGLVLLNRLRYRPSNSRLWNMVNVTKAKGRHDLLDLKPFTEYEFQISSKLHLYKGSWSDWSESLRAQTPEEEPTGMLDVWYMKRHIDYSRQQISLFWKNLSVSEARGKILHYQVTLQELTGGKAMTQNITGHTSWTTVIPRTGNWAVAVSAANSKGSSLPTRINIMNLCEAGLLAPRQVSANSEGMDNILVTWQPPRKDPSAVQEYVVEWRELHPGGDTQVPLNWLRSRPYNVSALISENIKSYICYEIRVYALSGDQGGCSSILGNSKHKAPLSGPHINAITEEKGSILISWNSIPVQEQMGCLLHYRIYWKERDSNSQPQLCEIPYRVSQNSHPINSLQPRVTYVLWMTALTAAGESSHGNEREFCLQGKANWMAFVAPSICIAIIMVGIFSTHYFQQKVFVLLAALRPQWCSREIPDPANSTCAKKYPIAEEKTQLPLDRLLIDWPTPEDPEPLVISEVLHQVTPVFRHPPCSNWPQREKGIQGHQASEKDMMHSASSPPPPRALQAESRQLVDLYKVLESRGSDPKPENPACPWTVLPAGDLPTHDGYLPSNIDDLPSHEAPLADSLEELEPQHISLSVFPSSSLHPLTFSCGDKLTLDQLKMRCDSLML

B1: anti-IL-12Rβ2 VHH clone 3CRHS99 (VHH, not shown: small tags and cut ends)
VHH: QVQLQESGGGLVQPGGSLRLSCKASGFTFSTYAMSWVRQAPGKGLEWVSAINSGGLSTDYADSVEGRFTISRDDAKNMLFLQMNSLKAEDTARYYCAKYEDCSDYMCHRDRAGYWGQGTQVTVSS
notes: periplasmic extract
B2: anti-IL-12Rβ2 VHH clone 3CRHS106 (VHH, not shown: small tags and cut ends)
VHH: B1 VHH with I51V, A88P
notes: periplasmic extract
B3: anti-IL-12Rβ2 VHH clone 3CAH28 (VHH, not shown: small tags and cut ends)
VHH: QVQLQESGGGLVQSGASLRLSCAASERTLSGYAMGWFRQAPGKEREFVAAIRWSGSSTYYAESVEGRFTISRDNAKNTVYLQMNILKPEDTAVYYCAAGSDYADEYDYWGQGTQVTVSS
notes: periplasmic extract; also called 20356
B4: anti-IL-12Rβ2 VHH clone 3CRH28 (VHH, not shown: small tags and cut ends)
VHH: QVQLQESGGGLVQPGGSLTLSCAASGFTFSSNAMSWVRQAPGKGLEWVSSISSGGGTTYYTDSVKGRFTTARDNAKNTLYLRMNSLKPEDTAVYYCSKSSTGSGSRGQGTQVTVSS
notes: periplasmic extract
B5: anti-IL-12Rβ2 VHH clone 3CAHS79 (VHH, not shown: small tags and cut ends)
VHH: QVQLQESGGGLVQPGGSLRLTCVASGFPFSTHAMSWVRQPPGKGREWISAINSGGDSTDYADSVMGRFTISRDNAKNTVYLQMNSLKSEDTAVYYCAKYEDCSDYDCSSRASWGQGTQVTVSS
notes: periplasmic extract
B6: anti-IL-12Rβ2 VHH clone 3CAHS171 (VHH, not shown: small tags and cut ends)
VHH: B5 VHH with V93A
notes: periplasmic extract
B7: anti-IL-12Rβ2 VHH clone 3CAH32 (VHH, not shown: small tags and cut ends)
VHH: QVQLQESGGGLVQPGGSLRLSCAASGSILRINLMGWYRQVPGKQRELVAEMSTGGSTTYVDSVKGRFTISRDNAKNTVYLQMNSLKPEDTAVYYCNAKAWQLGRLENDDWGQGTQVTVSS
notes: periplasmic extract; also called 20357
B8: anti-IL-12Rβ2 VHH clone 3CAHS102 (VHH, not shown: small tags and cut ends)
VHH: B7 VHH with K64E
notes: periplasmic extract
B9: anti-IL-12Rβ2 VHH clone 3CAHS41 (VHH, not shown: small tags and cut ends)
VHH: QVQLQESGGGLVQAGDSLRLSCAASGRTFDTYIVGWFRQAPGKEREFVSALSWSDDTTIRDDSLRGRFTISRDNAKNTVYLLMNSLKPEDTAVYYCAAKAKPPAATWSSYRNREWYDYWGQGTQVTVSS
notes: periplasmic extract
B10: anti-IL-12Rβ2 VHH clone 3CAHS180 (VHH, not shown: small tags and cut ends)
VHH: B9 VHH with I70L
notes: periplasmic extract
B11: anti-IL-12Rβ2 VHH clone 3CAHS142 (VHH, not shown: small tags and cut ends)
VHH: QVQLQESGGGLVQAGESLTLSCIASGVIKDYAMGWFRQAPGKEREFVAAISWSGVSIYYADSVKGRFTISRDNAKNTVYLQMNSLEPEDTAVYYCAGTEGAYTVAGGSTFGYDMDYWGKGTQVTVSS
notes: periplasmic extract
B12: anti-IL-12Rβ2 VHH clone 3CAHS39 (VHH, not shown: small tags and cut ends)
VHH: QVQLQESGGGLVQAGGSLRLSCAASGRTINAYIMGWFRQAPGKEREFVAAVSGSGGSTYYADSVKGRFTISRDNAKNTVNLQMDNLRSEDTDVYYCAATYESVYLQNPGQYDYWGQGTQVTVSS
notes: periplasmic extract
B13: anti-IL-12Rβ2 VHH clone 3CAHS124 (VHH, not shown: small tags and cut ends)
VHH: B12 VHH with A14P
notes: periplasmic extract
B14: anti-IL-12Rβ2 VHH clone 3CAHS150 (VHH, not shown: small tags and cut ends)
VHH: B12 VHH with L11S, I33V, V51I
notes: periplasmic extract
B15: anti-IL-12Rβ2 VHH clone 3CAHS52 (VHH, not shown: small tags and cut ends)
VHH: B12 VHH with L11S
notes: periplasmic extract
B16: anti-IL-12Rβ2 VHH clone 3CAHS43 (VHH, not shown: small tags and cut ends)
VHH: B12 VHH with L11S, Q106R
notes: periplasmic extract
B17: anti-IL-12Rβ2 VHH clone 3CAHS53 (VHH, not shown: small tags and cut ends)
VHH: B12 VHH with Q13E, A14P, N74S
notes: periplasmic extract
B18: anti-IL-12Rβ2 VHH clone 3CAHS170 (VHH, not shown: small tags and cut ends)
VHH: QVQLQESGGGLVQAGGSLRLSCVASGRTFSSYAMGWFRQGPGKEREFVAAISWSGVSIYYADSVKGRFTISRDNAKNTVYLQMNSLEPEDTAVYYCAGTEGAYTVAGGSTFGYDMDYWGKGTQVTVSS
notes: periplasmic extract
B19: anti-IL-12Rβ2 VHH clone 2CAH27 (VHH, not shown: small tags and cut ends)
VHH: B18 VHH with L11S, A14S
notes: periplasmic extract
B20: anti-IL-12Rβ2 VHH clone 3CAH48 (VHH, not shown: small tags and cut ends)
VHH: B18 VHH with V23A, I58T, E87R, G98A
notes: periplasmic extract; also called 20360
B21: anti-IL-12Rβ2 VHH clone 3CRH83 (VHH, not shown: small tags and cut ends)
VHH: QVQLQESGGGLVQAGGSLKLSCAASGNTFSINAMAWYRQAPGQELELVAAISDVGNTIYADSMKGRFTISRGNADNTVYLQMNSLKPEDTATYYCNAGTFYTSPGDSYYRGYDFWGQGTQVTVSS
notes: periplasmic extract
B22: anti-IL-12Rβ2 VHH clone 3CRH59 (VHH, not shown: small tags and cut ends)
VHH: QVQLQESGGGLVQPGGSLRLSCTASGFAFSSYWMYWVRQTPGKGFEWVSVVNPGGEITYYGDSMEDRFTISRDNAKNTLYLQMNSLKPEDTGLYYCARDRTTIDYTRTYYRGGQGTQVTVSS
notes: periplasmic extract
B23: anti-IL-12Rβ2 VHH clone 3CRH25 (VHH, not shown: small tags and cut ends)
VHH: QVQLQESGGGLVQAGDSLRLSCTASGHTFSRYTTIGWFRQAPGKDREFVAAIRWSGDITDYADAVKGRFTISRDNVKNTVYLQMNSLNPEDTAVYYCARGYSEYGVLSRNRGLYAYWGQGTQVTVSS
notes: periplasmic extract
B24: anti-IL-12Rβ2 VHH clone 3CRHS77 (VHH, not shown: small tags and cut ends)
VHH: B23 VHH with D16G, R31S, D45E, R53G, D74H, K77E
notes: periplasmic extract
B25: anti-IL-12Rβ2 VHH clone 3CRH64 (VHH, not shown: small tags and cut ends)
VHH: B23 VHH with D16G, M84T
notes: periplasmic extract
B26: anti-IL-12Rβ2 VHH clone 3CRHS31 (VHH, not shown: small tags and cut ends)
VHH: QVQLQESGGGLVQAGGSLRLSCAASGFTFSTYAMSWVRQAPGKGLEWVSSVNSGGLSTDYADSVEGRFTISRDDAKNMLFLQMNSLKPEDTARYYCAKYEDCSDYVCDRAGYWGQGTQVTVSS
notes: periplasmic extract
B27: anti-IL-12Rβ2 VHH clone 3CRHS51 (VHH, not shown: small tags and cut ends)
VHH: B26 VHH with A14P, S50A, S85R
notes: periplasmic extract
B28: anti-IL-12Rβ2 VHH clone 2CRH41 (VHH, not shown: small tags and cut ends)
VHH: QVQLQESGGGLVQPGGSLRLSCTASGFAFSSYWMYWVRQSPEKGFEWVSVVDTDGGITYYADSVKGRFTISRDNAKNTLYLQMNSLKPQDTALYYCARDRTTLEYTRTYYRTGQGTQVTVSS
notes: periplasmic extract; also called 20365
B29: anti-IL-12Rβ2 VHH clone 3CRHS163 (VHH, not shown: small tags and cut ends)
VHH: B28 VHH with S31T, V37I, D52N, D54G, G56D, Q89E, L103M, E104S, T112G
notes: periplasmic extract
B30: anti-IL-12Rβ2 VHH clone 3CRHS142 (VHH, not shown: small tags and cut ends)
VHH: QVQLQESGGGLVQAGGSLRLSCVSSQTLVGIEAMGWYRQAPGKQRELVALITLNGGTFYADSVKGRFTISRDVAEHMLYLEMNSLNPEDTAVYFCVAGVESDNEEPTYWGQGTQVTVSS
notes: periplasmic extract
B31: anti-IL-12Rβ2 VHH clone 3CRHS156 (VHH, not shown: small tags and cut ends)
VHH: B30 VHH with A14S, T68A
notes: periplasmic extract
B32: anti-IL-12Rβ2 VHH clone 3CRHS166 (VHH, not shown: small tags and cut ends)
VHH: B30 VHH with A14S
notes: periplasmic extract
B33: anti-IL-12Rβ2 VHH clone 2CRHS4 (VHH, not shown: small tags and cut ends)
VHH: B30 VHH with A14P, E75G
notes: periplasmic extract
B34: anti-IL-12Rβ2 VHH clone 3CRHS67 (VHH, not shown: small tags and cut ends)
VHH: B30 VHH with R19T
notes: periplasmic extract
B35: anti-IL-12Rβ2 VHH clone 3CAH60 (VHH, not shown: small tags and cut ends)
VHH: QVQLQESGGGLVQPGGSLILSCVASGFAMDYLTMGWSREAPRNEREDISCIDTSGRSTDYLDSVKGRFTISRDNAKNTLYLHMNDLKPEDTAEYYCLASTSYCGAGYEYRGQGTQVTVSS
notes: periplasmic extract; also called 20361

Each binder was assayed against T1, human IL-12Rβ2 (assay: flow cytometry, P.E. on transfected HEK293T cells).
B1 was tested, and the “% cells bound” value was 42.1% and the dMFI was 980.
For B2, the “% cells bound” value was 43.3% and the dMFI was 1110.
B3 was tested, and the “% cells bound” value was 0.15% and the dMFI was 37.
B4 was tested, and the “% cells bound” value was 44.6% and the dMFI was 1110.
In the case of B5, the “% cells bound” value is reported as 46.1% and the dMFI is reported as 1230.
For B6, the “% cells bound” value was 47.5% and the dMFI was 1280.
In the case of B7, the “% cells bound” value is reported as 40% and the dMFI is reported as 742.
In the case of B8, the “% cells bound” value is reported as 44.7% and the dMFI is reported as 1090.
B9 was tested, and the “% cells bound” value was 43.3% and the dMFI was 1070.
For B10, the “% cells bound” value was 42.6% and the dMFI was 1010.
With B11 the “% cells bound” value was 40.9% and the dMFI was 912.
For B12, the “% cells bound” value was 39% and the dMFI was 918.
With B13 the “% cells bound” value was 46.3% and the dMFI was 1200.
B14 was tested, and the “% cells bound” value was 47.4% and the dMFI was 1270.
With B15 the “% cells bound” value was 44.3% and the dMFI was 1110.
B16 was tested, and the “% cells bound” value was 47.6% and the dMFI was 1350.
In the case of B17, the “% cells bound” value is reported as 49.3% and the dMFI is reported as 1460.
B18 was tested, and the “% cells bound” value was 38.3% and the dMFI was 809.
In the case of B19, the “% cells bound” value is reported as 36.7% and the dMFI is reported as 668.
In the case of B20, the “% cells bound” value is reported as 39.4% and the dMFI is reported as 801.
B21 was tested, and the “% cells bound” value was 28.3% and the dMFI was 602.
For B22, the “% cells bound” value was 46.1% and the dMFI was 1170.
B23 was tested, and the “% cells bound” value was 34.8% and the dMFI was 620.
With B24 the “% cells bound” value was 37.7% and the dMFI was 867.
B25 was tested, and the “% cells bound” value was 31% and the dMFI was 645.
With B26 the “% cells bound” value was 42.8% and the dMFI was 977.
B27 was tested, and the “% cells bound” value was 46% and the dMFI was 1240.
With B28 the “% cells bound” value was 31.6% and the dMFI was 583.
For B29, the “% cells bound” value was 43.7% and the dMFI was 1150.
For B30, the “% cells bound” value was 1.02% and the dMFI was 210.
B31 was tested, and the “% cells bound” value was 1.51% and the dMFI was 222.
B32 was tested, and the “% cells bound” value was 2.11% and the dMFI was 266.
In the case of B33, the “% cells bound” value is reported as 3.55% and the dMFI is reported as 254.
For B34, the “% cells bound” value was 7.11% and the dMFI was 443.
For B35, the “% cells bound” value was 0.1% and the dMFI was 18.

From patent publication US20260209362A1 (VIB VZW, published 2026)
